Measured values: US20130041138A1, “ANTIBODIES THAT BIND TO PSCA PROTEINS FOR DIAGNOSIS OF CANCER” (priority 2003, published 2013)

Tests used:
[1] = test system: SW780 human bladder tumors; assay: Subcutaneous SW780 bladder tumor xenograft; format: in vivo, ICR SCID mice; conditions: 250 mg/mouse i.p. two times a week, 7 doses, from day of injection; t test
Protocol: (§1) FIG. 27. Human PSCA MAbs Inhibit the Growth of SW780 Bladder Tumors in SCID Mice. Human SW780 bladder cancer cells (2×10^6/mouse) were injected subcutaneously into immunodeficient ICR SCID mice (Taconic Farm, Germantown, N.Y.). The mice were randomized into groups (n=10 animals/group) and treatment with the indicated human PSCA MAb initiated the same day. Antibodies (250 mg/mouse) were delivered intraperitoneally two times a week for a total of 7 doses. […] Statistical analyses were performed using at test (two-sided, α=0.05).
as §1, with “In another experiment,” for “FIG. 27. Human PSCA MAbs Inhibit the Growth of SW780 Bladder Tumors in SCID Mice.”, “α=0.05) (FIG. 27).” for “α=0.05).”

[2] = biological target: T1, cell surface PSCA on PSCA-expressing cells (endogenous or recombinant) (Homo sapiens, UniProt O43653); assay: PSCA human MAb screening by FACS; format: binding
T1 construct: host or cells: PSCA-expressing cells (endogenous or recombinant)
Protocol: FIGS. 9A and 9B. Screening for human PSCA antibodies by FACS. Antibody concentration from supernatants was determined by ELISA. 50 ul/well of (neat) was added to 96-well FACS plates and serially diluted. PSCA-expressing cells were added (endogenous or recombinant, 50,000 cells/well) and the mixture incubated at 4° C. for two hours. Following incubation, the cells were washed with FACS Buffer and further incubated with 100 ul of detection antibody (anti-hIgG-PE) for 45 minutes at 4° C. At the end of incubation, the cells were washed with FACS Buffer, fixed with formaldehyde and analyzed using FACScan. Data were analyzed using CellQuest Pro software. Solid histograms represent data from negative control cells and open histograms indicate data from PSCA-positive cells.
Primary hybridoma screening for MAbs to PSCA was performed by FACS. The protocol was as follows: 50 ul/well of hybridoma supernatant (neat) or purified antibodies (in serial dilutions) were added to 96-well FACS plates and mixed with PSCA-expressing cells (endogenous or recombinant, 50,000 cells/well). The mixture was incubated at 4° C. for two hours. At the end of incubation, the cells were washed with FACS Buffer and incubated with 100 ul of detection antibody (anti-hIgG-PE) for 45 minutes at 4° C. At the end of incubation, the cells were washed with FACS Buffer, fixed with Formaldehyde and analyzed using FACScan. Data were analyzed using CellQuest Pro software. Filled histograms indicate data from negative control cells, and open histograms represent data from PSCA-positive cells (FIG. 9).
Positive hybridomas identified from primary screens were transferred to 24-well plates and supernatants collected for confirmatory screens. Confirmatory screens included FACs analysis on B300.19-PSCA/300.19-neo, Rat1-PSCA/Rat1-neo, PC3-PSCA/neo, SW780 (bladder cancer cell line), LAPC9AI (prostate cancer cell line), HPAC (pancreatic cancer cell line), and ELISA assay using Tag5-PSCA, GST-PSCA, GST-PSCA N-term, Med. C-Term, and pET-PSCA.

[3] = test system: B300.19-PSCA expressing cells; assay: Complement mediated cytotoxicity; format: cell-based; conditions: 0-50 μg/ml antibody, rabbit complement serum, 2 hr 37° C., Alamar Blue
Protocol: (§2) FIG. 14. Complement mediated cytotoxicity of PSCA Mabs. PSCA antibodies (0-50 μg/ml) were diluted with RHB buffer (RPMI 1640, Gibco Life Technologies, 20 mM HEPES). B300.19-PSCA expressing cells were washed in RHB buffer and resuspended at a density of 10^6 cells/ml. In a typical assay, 50 μl of PSCA antibody, 50 μl of diluted rabbit complement serum (Cedarlane, Ontario, Can), and 50 μl of a cell suspension were added together into a flat-bottom tissue culture 96-well plate. The mixture was incubated for 2 hr. at 37° C. in a 5% CO2 incubator to facilitate complement-mediated cell lysis. […] The fluorescence in each well was read using a 96-well fluorometer with excitation at 530 nm and emission at 590 nm.
as §2, with “PSCA” for “FIG. 14. Complement mediated cytotoxicity of PSCA”, “antibodies were evaluated to determine their ability to mediate immune dependent cytotoxicity.” for “Mabs.”, “plate.” for “plate. The mixture was incubated for 2 hr. at 37° C. in a 5% CO2 incubator to facilitate complement-mediated cell lysis.”

[4] = test system: LAPC-9AI androgen-independent human prostate cancer xenografts; assay: Established subcutaneous LAPC-9AI prostate cancer xenograft; format: in vivo, SCID mice; conditions: treatment from tumor volume 50 mm3, i.p. twice weekly, 5 doses until day 14; p<0.05
Protocol: FIG. 19. PSCA MAb Ha1-5.99 Inhibits the Growth of Established Prostate Cancer Xenografts in SCID mice. LAPC-9AI tumor cells (2.0×10^6 cells) were injected subcutaneously into male SCID mice. When tumor volume reached 50 mm3, the mice were randomized into groups (n=10 in each group) and treatment initiated intraperitoneally (i.p.) with HA1-5.99.1 or isotype MAb control as indicated. Animals were treated twice weekly for a total of 5 doses until study day 14. Tumor growth was monitored using caliper measurements every 3 to 4 days as indicated.
In another experiment, LAPC-9AI tumor cells (2.0×10^6 cells) were injected subcutaneously into male SCID mice. When tumor volume reached 50 mm3, the mice were randomized into groups (n=10 in each group) and treatment initiated intraperitoneally (i.p.) with HA1-5.99.1 or isotype MAb control as indicated Animals were treated twice weekly for a total of 5 doses until study day 14. Tumor growth was monitored using caliper measurements every 3 to 4 days as indicated. […] (FIG. 19).

B1: Ha1-4.37: fully human gamma 1 anti-PSCA monoclonal antibody from XenoMouse; ATCC PTA-6702; sequences FIG. 2P-2Q (antibody, V domains shown)
VH: CPGALQESGPGLVRPSQTLSLTCTVSGGSISSGGTYYWIWIRQHPGKGLEWIGYIYYSGSTYYNPSLKSRVTISVDTSKNQFSLKLSSVTAADTAVYYCARDGITMVRGISGGMDVWGQGTTVTVSSASTKGPSVKGPSVF
VL: ASVGDRVTITCRASQSISSHLNWYQQKPGKAPKLLIYAASSLQSGVPSRFSGSGSGTDFTLSISSLQPEDFATYFCQQSYSIPRTFGQGTKVEITRTVAAPSVFIFPPSDEQLKSGTASVVCLLNNFYPREAKVQWKVDNALQSG
With B1 the “inhibition of subcutaneous tumor growth” value [1] was “significantly inhibited the growth” and the “react and bind with cell surface or immobilized PSCA” value [2] was “react and bind with cell surface or immobilized PSCA”.

B2: Ha1-5.99: fully human gamma 2 anti-PSCA monoclonal antibody from XenoMouse; ATCC PTA-6703; sequences FIG. 2E-2F (antibody, V domains shown)
VH: QVHLQQWGAGLLKPSETLSLTCAVYGGSFSGYYWSWIRQPPGKGLEWIGEINHSGSTSYKPSLKSRVTVSVDTSKNQFSLKLSYVTAADTAVYYCARDRGDYGDFLFDYWGQGTLVTVSSASTKGPSVFPLAPSSKST
VL: SPGERATLSCRASQSIGSTYLAWYQQKPGQAPRLLIYGASSRATGIPERFSGSGSGTDFTLTISGLEPEDFAVFYCQQCGSSPPTFGQGTKVEIKRTVAAPSVFIFPPSDEQLKSGTASVVCLLNNFYPREAKVQWKVDNA
B2 was tested, and the “complement dependent lysis of target cells” value [3] was “able to mediate complement dependent lysis”, the “inhibition of subcutaneous tumor growth” value [1] was “significantly inhibited the growth” and the “react and bind with cell surface or immobilized PSCA” value [2] was “react and bind with cell surface or immobilized PSCA”. The “binding to endogenous cell surface PSCA” value ([2]; PSCA expressed in prostate cancer xenograft cells) was “bind endogenous cell surface PSCA” and the “inhibition of growth of established subcutaneous tumors” value [4] was “significantly inhibited the growth”.
